Data set [1] addresses RABV SAD-B19 large polymerase protein (L), 6xHis-tagged (rabies virus (RABV) SAD-B19, UniProt P16289 1-2127). Briefly: negative-stain electron microscopy.
Data set [2] deals with the molecule itself. Kind of data set: negative-stain electron microscopy.

RABV SAD-B19 large polymerase protein (L), 6xHis-tagged, sequence (P16289 whole entry): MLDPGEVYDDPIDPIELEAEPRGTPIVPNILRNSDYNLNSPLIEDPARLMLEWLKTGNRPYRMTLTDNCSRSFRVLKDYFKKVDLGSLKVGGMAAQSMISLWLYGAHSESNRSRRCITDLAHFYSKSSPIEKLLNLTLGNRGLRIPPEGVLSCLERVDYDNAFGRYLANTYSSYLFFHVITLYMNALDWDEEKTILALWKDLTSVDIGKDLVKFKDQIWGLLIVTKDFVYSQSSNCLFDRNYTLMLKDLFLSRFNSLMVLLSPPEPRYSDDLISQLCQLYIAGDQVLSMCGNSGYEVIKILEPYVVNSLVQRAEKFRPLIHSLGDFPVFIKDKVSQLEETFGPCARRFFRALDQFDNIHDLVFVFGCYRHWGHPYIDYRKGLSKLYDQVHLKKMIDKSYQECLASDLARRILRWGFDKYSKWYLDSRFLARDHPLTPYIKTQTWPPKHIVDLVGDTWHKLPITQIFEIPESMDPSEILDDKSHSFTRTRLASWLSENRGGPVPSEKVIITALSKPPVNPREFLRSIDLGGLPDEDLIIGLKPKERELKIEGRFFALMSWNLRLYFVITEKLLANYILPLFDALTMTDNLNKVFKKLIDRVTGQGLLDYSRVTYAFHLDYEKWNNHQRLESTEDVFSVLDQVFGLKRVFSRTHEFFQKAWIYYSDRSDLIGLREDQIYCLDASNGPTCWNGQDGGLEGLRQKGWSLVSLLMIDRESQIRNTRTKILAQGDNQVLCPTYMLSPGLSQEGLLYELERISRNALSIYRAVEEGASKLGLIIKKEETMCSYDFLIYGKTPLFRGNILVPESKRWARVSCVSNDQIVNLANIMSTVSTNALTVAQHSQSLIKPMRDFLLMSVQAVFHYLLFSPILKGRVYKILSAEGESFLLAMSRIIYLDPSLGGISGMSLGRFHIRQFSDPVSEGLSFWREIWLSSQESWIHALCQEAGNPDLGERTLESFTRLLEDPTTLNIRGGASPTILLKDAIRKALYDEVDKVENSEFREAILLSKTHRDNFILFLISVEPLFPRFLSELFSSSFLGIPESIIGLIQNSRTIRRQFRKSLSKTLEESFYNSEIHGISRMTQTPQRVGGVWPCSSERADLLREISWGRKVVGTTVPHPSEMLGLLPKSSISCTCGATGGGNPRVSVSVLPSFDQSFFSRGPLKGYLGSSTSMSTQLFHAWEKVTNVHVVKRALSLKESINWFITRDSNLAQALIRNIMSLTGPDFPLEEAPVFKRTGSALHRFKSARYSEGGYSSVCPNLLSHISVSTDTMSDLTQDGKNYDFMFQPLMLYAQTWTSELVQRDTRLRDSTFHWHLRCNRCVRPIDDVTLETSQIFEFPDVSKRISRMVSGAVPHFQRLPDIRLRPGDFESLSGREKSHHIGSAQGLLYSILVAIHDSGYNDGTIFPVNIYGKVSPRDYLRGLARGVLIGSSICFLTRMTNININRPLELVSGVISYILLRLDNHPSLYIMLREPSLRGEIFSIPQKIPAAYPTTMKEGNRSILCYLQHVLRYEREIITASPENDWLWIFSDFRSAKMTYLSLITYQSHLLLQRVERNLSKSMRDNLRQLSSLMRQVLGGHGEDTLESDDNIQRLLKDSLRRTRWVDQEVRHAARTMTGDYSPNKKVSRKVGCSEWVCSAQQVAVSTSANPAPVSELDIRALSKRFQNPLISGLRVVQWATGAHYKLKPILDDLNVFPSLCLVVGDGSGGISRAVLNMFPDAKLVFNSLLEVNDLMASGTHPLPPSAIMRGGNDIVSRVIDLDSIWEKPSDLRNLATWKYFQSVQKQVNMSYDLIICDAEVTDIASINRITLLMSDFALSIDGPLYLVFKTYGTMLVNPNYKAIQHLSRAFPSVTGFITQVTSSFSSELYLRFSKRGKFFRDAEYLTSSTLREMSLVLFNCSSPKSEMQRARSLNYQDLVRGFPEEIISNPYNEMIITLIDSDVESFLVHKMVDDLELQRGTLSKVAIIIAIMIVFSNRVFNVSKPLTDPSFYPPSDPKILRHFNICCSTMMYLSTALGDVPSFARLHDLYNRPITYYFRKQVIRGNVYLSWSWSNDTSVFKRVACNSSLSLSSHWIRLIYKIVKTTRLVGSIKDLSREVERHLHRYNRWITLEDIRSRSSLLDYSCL

B1: RABV SAD-B19 full-length P (PFL) with C-terminal StrepII tag (natural protein)
chain: MSKIFVNPSAIRAGLADLEMAEETVDLINRNIEDNQAHLQGEPIEVDNLPEDMGRLHLDDGKSPNHGEIAKVGEGKYREDFQMDEGEDPSFLFQSYLENVGVQIVRQMRSGERFLKIWSQTVEEIISYVAVNFPNPPGKSSEDKSTQTTGRELKKETTPTPSQRESQSSKARMAAQIASGPPALEWSATNEEDDLSVEAEIAHQIAESFSKKYKFPSRSSGILLYNFEQLKMNLDDIVKEAKNVPGVTRLAHDGSKLPLRCVLGWVALANSKKFQLLVESDKLSKIMQDDLNRYTSC
As for B1, the binding result in data set [1] was “binds”. Besides, the “stoichiometry N” value in data set [2] was 2.

Usually stoichiometry N stands for the number of molecules, sites or subunits per partner or assembly.
